Laboratory results as given in the supplement of paper PMC10471632, “Protein engineering and iterative multimodule optimization for vitamin B6 production in Escherichia coli” (Nature Communications, 2023).
± gives the standard deviation of the averaged measurements.

B1: library; numbered along this chain (parent)
chain: MAELLLGVNIDHIATLRNARGTAYPDPVQAAFIAEQAGADGITVHLREDRRHITDRDVRILRQTLDTRMNLEMAVTEEMLAIAVETKPHFCCLVPEKRQEVTTEGGLDVAGQRDKMRDACKRLADAGIQVSLFIDADEEQIKAAAEVGAPFIEIHTGCYADAKTDAEQAQELARIAKAATFAASLGLKVNAGHGLTYHNVKAIAAIPEMHELNIGHAIIGRAVMTGLKDAVAEMKRLMLEARG

Variants of: B1
Test: pyridoxine titer in culture supernatant of strain expressing the PdxJ variant; higher = more PN produced (higher in vivo pathway activity of the PdxJ variant)
Conditions: host strain: E. coli LL006; 48 h; temperature: 37 °C; FM1.4
Method: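 Rosetta-designed single to quadruple mutants of E. coli PdxJ (PNP synthase) were expressed from pRSFDuet-1 in the engineered chassis E. coli LL006 (MG1655 ΔpdxH::pdxST, pta::Eme_pdxP). Strains were grown in 24 deep-well plates in 2 mL FM1.4 glycerol medium at 37 °C and 800 rpm for 48 h. Extracellular pyridoxine (PN) titer was quantified by HPLC with fluorescence detection; two biological replicates, with the WT pdxJ strain (LL137, about 0.5 mg/L) as control.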

Variant	pyridoxine titer [mg/L]
I13V E100I L212I	6.04 ± 1.9
A19Q V44I	0.875 ± 0.47
A19Q	1.02 ± 0.045
T15I	0.373 ± 0.14
T15I A23T	0.3 ± 0.014
I10L I13V L212I	3.48 ± 1.7
I13V	4.14 ± 0.062
A23T I218L	1.04 ± 0.45
V44C G194C N213I I218L	2.07 ± 0.077
A23T T196W L212I	1.71 ± 0.54
I13V E104T G194Q T196C	0.3065 ± 0.0012
D11C T196C	0.43 ± 0.028
I10L G194C T196Y I218L	0.378 ± 0.044
I10L T22V	6.01 ± 0.81
I10L T196C	0.61 ± 0.028
V101L E104T A217V	1.17 ± 0.057
I10L T22V E104T I219L	2.93 ± 0.16
I154L I219G	1.93
I13V T103L L212I	0.43 ± 0.18
A23T E104T T196V L212I	2.61 ± 0.1
I10L I13V T196V L212I	0.575 ± 0.077
A23T V44I T196V L212I	1.53 ± 0.17
I10L V101L E104T G194Q	7.61 ± 0.4
T103L L212I A217V	0.903 ± 0.052

Variant	pyridoxine titer [mg/L]
I13V E100I G194K L212I	0.324 ± 0.15
E100I V101L L212I	0.86 ± 0.3
G7L I154L	0.82 ± 0.68
G21M T103L	0.63 ± 0.33
G7I E104T G194C I218L	2.32 ± 0.19
L212I	4.92 ± 3.9
I13V I154L T196C	0.52 ± 0.014
T103L T196C L212I	0.33
Y24I I219G	0.95 ± 0.23
I10L T22V E104T H155N	2.5 ± 0.35
L212I A217V	0.69 ± 0.042
I13V T103L E104T T196C	0.233 ± 0.009
G7L I218L	0.76
A19C A23T L212I	3.68 ± 0.73
A23T	0.981 ± 0.014
A19Q G21M	1.17 ± 0.38
L195I	0.848 ± 0.15
T196C I218L	0.22 ± 0.057
I10L A19C V101L E104T	0.41 ± 0.019
I10L T22V A23T I219C	1.49 ± 0.02
E100I V101L	2.12 ± 0.11
I10L V101L E104T I219M	0.553 ± 0.14
I10L V101L E104T I219C	0.874 ± 0.68
I10L V101L E104T I219W	1.66 ± 0.26

Variant	pyridoxine titer [mg/L]
G7M E104T G194C I218L	0.955 ± 0.033
I10L E104T G194Q I218L	1.46 ± 0.011
V101L A217V	0.74 ± 0.2
I10L A23T E104T	6.49 ± 0.071
H155I L212I	0.36
I13V A217V	1.81 ± 0.057
I10L V101L E104T T196V	6.81 ± 0.15
I10L E104T	1.1 ± 0.48
V101L T103L L212I	0.81 ± 0.014
A23T V44I L212I	6.75 ± 0.099
T22V	1.29 ± 0.091
I13V T196C	2.15 ± 0.18
I10L A23T E104T G194Q	0.545 ± 0.21
I10L	2.82 ± 0.43
G7L T103L E104T	7.1 ± 0.35
I10L T103L E104T	8.08 ± 0.54
E100I	0.906 ± 0.17
E100I V101L T196C	0.81 ± 0.21
I10L V101L E104T I218M	0
I10L A19R T22V A23T	0.561 ± 0.17
I13V E100W E104T L212I	0.293 ± 0.15
I10L A23T E104T I219C	3.27 ± 0.22
G7L	0.9583 ± 0.0052
D11N	1.88 ± 0.18

Variant	pyridoxine titer [mg/L]
I10L T22V A23T E100I	1.17 ± 0.23
E100I T103L L212I	0.66 ± 0.47
E100I L212I	0.67 ± 0.47
E104T A217V	1.12 ± 0.014
I10L A23T V101L E104T	0.257 ± 0.014
I10L A23T T103L	0.24
I13V T15V L212I	0.41 ± 0.13
I13V E104T L212I	6.61 ± 2.6
A23T V44I E104T L212I	4.95 ± 0.43
E104T G194C I218L	9.71 ± 0.22
I10L G194C I218L I219L	1.09 ± 0.14
G7M T196C L212I	6.32 ± 1.8
A23T I219G	0.76 ± 0.16
T196C L212I	0.66 ± 0.014
H12M	1.79 ± 0.07
I10L T103L	1.81 ± 0.042
G194C T196V N213I I218L	2.28 ± 1
I13V E104T T196C I219C	0.274 ± 0.01
A23T G194C I219G	0.873 ± 0.37
A217V I219G	0.77 ± 0.11
A23T E104T L212I	3.44 ± 1.2
I10L A23T E100I	4.81 ± 0.11
I10L A19L A23T	0.2 ± 0.028
V101L E104T L212I	0.49 ± 0.028

Variant	pyridoxine titer [mg/L]
G7L E104T	0.65 ± 0.014
G21M	0.428 ± 0.049
A23T A217V	1.12 ± 0.18
E104T	0.334 ± 0.033
A23T E104T I154L	2.31 ± 0.92
V101L T196C	2.16 ± 0.085
A23T H155I L212I	0.63 ± 0.014
H12M A23T	0.58 ± 0.014
I10L A23W V101L E104T	1.8 ± 0.37
E104T I219G	2.75 ± 3.3
G194C N213I I218L	9.12 ± 0.45
I10L E104T I218L	3.74 ± 0.56
E104T I218L	0.75 ± 0.085
I10L H155I I218L	0.28 ± 0.028
I10L T22V A23W E104T	2.06 ± 0.39
V44I	0.719 ± 0.33
T196C	1.21 ± 0.38
I10L T22V A23T	6.93 ± 0.49
I10L T22V A23T G194Q	0.91 ± 0.11
I13V H155I L212I	0.81 ± 0.27
A217V	3.92 ± 2
I10L A23T	1.39 ± 0.2
I10L A14I V101L	0.31 ± 0.014
H155I N213I	0.26

Variant	pyridoxine titer [mg/L]
A23Y E104T G194C I218L	0.22 ± 0.013
G21M V44I T196C	1.94 ± 0.23
E104T L212I	2.65 ± 0.071
I10L V101L	1.46 ± 0.37
I10L T22V E104T	0.875 ± 0.11
E104T G194C T196V I218L	6.11 ± 7.1
T15C A19Q V44I	0.48 ± 0.057
A23T V44I T196R L212I	3.37 ± 1.5
T22V L212I	0.55 ± 0.13
Y24I E100I	0.81 ± 0.028
I10L A217V	0.48 ± 0.028
H155I	3.05 ± 1.1
I10L G194C I218L	1.45 ± 0.3
I13V V44L E104T L212I	0.354 ± 0.0062
A23T G194C T196M I219G	6.96 ± 5.8
I10L T103L I218L	0.29 ± 0.057
I10L L212I	1.64 ± 0.24
I10L D11C A23T	0.22 ± 0.057
E100I V101L T196C A217M	2 ± 0.12
G7L N213I	0.6 ± 0.11
A19Q G21M E100I	0.47 ± 0.23
A23T L212I	1.09 ± 0.79
I13V V101L E104T T196C	1.04 ± 0.83
G7L H155I	0.72 ± 0.071

Variant	pyridoxine titer [mg/L]
I10L I13V H155I L212I	1.66 ± 0.076
V101L	1.19 ± 0.086
T103L	3.2 ± 0.14
V101L T196C L212I	7.33 ± 0.48
E104T G194C I218L I219L	4.45 ± 0.41
A23T Y24V	0.39 ± 0.028
Y24I	0.0833 ± 0.01
L195G L212I	0.89 ± 0.014
I10L A23T G194C	1.27 ± 0.028
E104T G194C T196Y I218L	0.557 ± 0.059
D11C A23T I218L	0.39 ± 0.17
N213I I218L	1.1 ± 0.14
I10L E100I I218L	0.24 ± 0.16
I10L G194C T196L I218L	0.562 ± 0.075
I218V	0.374 ± 0.063
A23T I154L	1.23 ± 0.099
I10L A23Y V101L E104T	0.246 ± 0.0055
A23T V44I L212I I219W	3.27 ± 0.26
I10L E104T I218L I219M	0.32 ± 0.054
I10L E104T I218L I219W	0.561 ± 0.22
I10L T22V E104T I218M	0.757 ± 0.11
T15I V101L T196C	0.44
G21M T196C	0.68 ± 0.042
H155I I218L	0.66 ± 0.014

Variant	pyridoxine titer [mg/L]
G7W I10L I218L	0.2 ± 0.014
I10L T22V A23T I218M	0.2811 ± 0.0013
A23T E104T G194K L212I	0.349 ± 0.013
A23T E100I G194Q I219G	2.67 ± 0.14
G21M G194C	0.6 ± 0.014
I154L	1.72 ± 1.6
G194C L195I	0.26
I13V V44L E104T T196C	0.824 ± 0.7
E100I E104T	0.98 ± 0.2
I13V G21M E104T T196C	1.98 ± 0.077
G194C	0.64 ± 0.33
A23T I218L I219V	5.75 ± 0.16
H12M A14I T196C	1.49 ± 0.28
A23T V44I T196W L212I	2.89 ± 0.96
A23T V44I V101L L212I	8.38 ± 1.2
A23T G194C T196F I219G	0.237 ± 0.011
T103L L212I	3 ± 0.58
I219G	1.3 ± 0.31
A23T T103L L212I	0.46 ± 0.014
I13V L212I	1.07 ± 0.3
I13V E104T T196R L212I	4.01 ± 0.7
N213I	1.76 ± 0.13
G194C I218L	1.33 ± 0.76
T22V A23T	1.74 ± 0.23

Variant	pyridoxine titer [mg/L]
T15I T196C	1.08 ± 0.071
V101L L212I	0.72 ± 0.042
I13V E104T T196C	9.62 ± 0.33
I10L I218L	2.4 ± 0.35
E100M V101L T196C	2.12 ± 0.38
I13V E100I E104T T196C	1.25 ± 0.031
H12M T196C	1.02 ± 0.014
A14I E104T T196C	1.69 ± 0.75
A19R A23T E100I I219G	0.244 ± 0.041
I10L V101L T103L E104T	1.611 ± 0.0023
L195I T196C	0.41 ± 0.014
I10L G21D T22V E104T	2.44 ± 1.1
I13V H155R L212I	0.22 ± 0.042
I10L V101L E104T	2.46 ± 2
I10L T103L L212I	0.43 ± 0.071
A19Q E104T	0.72 ± 0.028
I10L H12L T103L	0.18 ± 0.028
A19Q G21M T103L	0.49 ± 0.028
A23T E100I I219G	8.72 ± 0.52
